One block for each binder: values may come before it. Starred links: 1 amine or outer side, 2 acyl side, 3 side chain; linkers in the order of their positions; H or OH if unused. Positions of bridges follow the written chain, without caps; N, C: chain ends. Non-standard residues stand in square brackets, D forms with d. Primed or numbered codes have the meaning given here. *: point of attachment. PyrS2″ = (S)-3-amino-1-((pent-4-en-1-yloxy)carbonyl)pyrrolidine-3-carboxylic acid (stapling residue), C=CCCCOC(=O)N1CC[C@@](N[*:1])(C(=O)[*:2])C1; B5(16) = 2-amino-2-(pent-4-en-1-yl)hept-6-enoic acid = 2,2-bis(4-pentenyl)glycine (stitching residue), C=CCCCC(CCCC=C)(N[*:1])C(=O)[*:2]; B5(4) = 2,2-bis(4-pentenyl)glycine = 2-amino-2-(pent-4-en-1-yl)hept-6-enoic acid (stitching residue), C=CCCCC(CCCC=C)(N[*:1])C(=O)[*:2]; B5(5) = 2,2-bis(4-pentenyl)glycine, 2-amino-2-(pent-4-en-1-yl)hept-6-enoic acid (stitching residue), C=CCCCC(CCCC=C)(N[*:1])C(=O)[*:2]; PyrS2 = (S)-3-amino-1-((pent-4-en-1-yloxy)carbonyl)pyrrolidine-3-carboxylic acid, C=CCCCOC(=O)N1CC[C@@](N[*:1])(C(=O)[*:2])C1; B5(19) = 2-amino-2-(pent-4-en-1-yl)hept-6-enoic acid (bis(4-pentenyl)glycine), C=CCCCC(CCCC=C)(N[*:1])C(=O)[*:2]; MePpzAsn = (S)-2-amino-4-(4-methylpiperazin-1-yl)-4-oxobutanoic acid, CN1CCN(C(=O)C[C@H](N[*:1])C(=O)[*:2])CC1; B5(3) = 2,2-bis(4-pentenyl)glycine (stitching residue), C=CCCCC(CCCC=C)(N[*:1])C(=O)[*:2]; Phe(3-CF3) = N[C@@H](Cc1cccc(C(F)(F)F)c1)C(=O)O; Phe(3-COOH) = N[C@@H](Cc1cccc(C(=O)O)c1)C(=O)O; 2F3MeF = Cc1cccc(C[C@H](N[*:1])C(=O)[*:2])c1F; Phe(2-Cl) = N[C@@H](Cc1ccccc1Cl)C(=O)O; Bta = N[C@@H](Cc1csc2ccccc12)C(=O)O; αAllylPro = C=CC[C@@]1(C(=O)O)CCCN1; tBuAla = CC(C)(C)C[C@H](N)C(=O)O; S8 = C=CCCCCCC[C@](C)(N)C(=O)O; iPr = CC(C)*
Key:
B-cat-Halo = biological target: T1, B-cat-Halo (UniProt P35222 1-781); assay: cell-based or functional assay
T1 sequence (looked up): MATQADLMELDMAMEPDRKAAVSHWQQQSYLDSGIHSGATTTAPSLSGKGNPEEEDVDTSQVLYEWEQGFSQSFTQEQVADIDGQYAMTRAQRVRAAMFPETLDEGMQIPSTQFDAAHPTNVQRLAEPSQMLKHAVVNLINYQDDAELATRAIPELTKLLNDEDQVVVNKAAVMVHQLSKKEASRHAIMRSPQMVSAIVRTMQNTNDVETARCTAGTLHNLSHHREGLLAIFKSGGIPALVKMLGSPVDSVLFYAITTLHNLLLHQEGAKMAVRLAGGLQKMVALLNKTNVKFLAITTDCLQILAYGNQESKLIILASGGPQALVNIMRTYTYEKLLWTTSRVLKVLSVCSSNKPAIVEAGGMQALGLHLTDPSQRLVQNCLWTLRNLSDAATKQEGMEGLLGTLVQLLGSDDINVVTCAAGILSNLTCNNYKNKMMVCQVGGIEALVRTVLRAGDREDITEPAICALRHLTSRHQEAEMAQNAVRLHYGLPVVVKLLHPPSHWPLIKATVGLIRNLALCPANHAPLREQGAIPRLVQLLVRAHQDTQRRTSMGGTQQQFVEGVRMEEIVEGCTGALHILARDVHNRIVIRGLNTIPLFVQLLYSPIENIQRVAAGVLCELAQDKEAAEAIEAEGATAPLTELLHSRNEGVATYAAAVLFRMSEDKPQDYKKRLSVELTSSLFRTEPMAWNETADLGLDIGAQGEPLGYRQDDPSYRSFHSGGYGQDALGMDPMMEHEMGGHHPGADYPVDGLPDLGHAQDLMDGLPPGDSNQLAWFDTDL

[1] = biological target: T2, beta-catenin (endogenous, DLD1 TCF/LEF luciferase reporter cells) (UniProt P35222 1-781); assay: cell-based or functional assay
T2 sequence (looked up): T1 sequence (looked up)

[2] = biological target: T3, B-cat-Halo (beta-catenin HaloTag NanoBRET construct expressed in HEK293 cells) (UniProt P35222 1-781, HaloTag NanoBRET 618 Ligand bound in the assay); assay: cell-based or functional assay
T3 sequence (looked up): T1 sequence (looked up)

[3] = biological target: T4, full-length beta-Catenin (Uniprot ID P35222) (Homo sapiens (Human), UniProt P35222 2-781); assay: fluorescence polarization competition; full-length beta-catenin, 5FAM-TCF4(10-53) probe as competitor
T4 construct: The FP protocol names full-length beta-Catenin (Uniprot ID P35222); also called bCat; B-Catenin
T4 sequence: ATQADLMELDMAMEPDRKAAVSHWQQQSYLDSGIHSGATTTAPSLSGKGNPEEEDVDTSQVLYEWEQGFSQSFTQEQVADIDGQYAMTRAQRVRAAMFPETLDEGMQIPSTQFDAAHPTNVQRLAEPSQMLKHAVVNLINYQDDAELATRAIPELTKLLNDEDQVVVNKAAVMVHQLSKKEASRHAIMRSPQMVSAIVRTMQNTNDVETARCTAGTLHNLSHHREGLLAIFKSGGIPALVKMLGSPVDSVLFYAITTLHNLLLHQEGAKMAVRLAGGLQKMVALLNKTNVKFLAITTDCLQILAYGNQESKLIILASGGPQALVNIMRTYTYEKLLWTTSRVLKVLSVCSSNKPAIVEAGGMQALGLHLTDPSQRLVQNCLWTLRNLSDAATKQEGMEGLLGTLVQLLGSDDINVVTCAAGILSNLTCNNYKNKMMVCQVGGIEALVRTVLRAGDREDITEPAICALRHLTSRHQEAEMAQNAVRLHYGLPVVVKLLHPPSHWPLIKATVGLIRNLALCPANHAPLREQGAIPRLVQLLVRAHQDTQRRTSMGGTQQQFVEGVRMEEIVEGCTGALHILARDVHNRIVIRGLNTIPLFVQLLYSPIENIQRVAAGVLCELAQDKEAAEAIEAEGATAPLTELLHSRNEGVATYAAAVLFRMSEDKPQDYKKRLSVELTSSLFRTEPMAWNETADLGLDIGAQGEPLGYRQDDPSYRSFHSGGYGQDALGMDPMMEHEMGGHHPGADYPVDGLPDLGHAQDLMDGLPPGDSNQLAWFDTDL
In short: (§1)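 Data fitted to 1:1 binding model with hill slope from duplicate reads taken after 60 minutes at 20° C. in the dark.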

[4] = biological target: T5, full-length beta-Catenin (Uniprot ID P35222) (Homo sapiens (Human), UniProt P35222 2-781); assay: fluorescence polarization competition; full-length beta-catenin, competitor 5FAM-TCF4(10-53) probe
T5 construct: also called bCat; B-Catenin
T5 sequence: T4 sequence
In short: as §1

[5] = biological target: T6, full-length beta-Catenin (Uniprot ID P35222) (Homo sapiens (Human), UniProt P35222 1-781); assay: fluorescence polarization competition; 10 nM full-length beta-catenin with 10 nM 5FAM-labeled TCF4 (residues 10-53) probe as competitor
T6 construct: The assay text says 'full-length beta-Catenin (Uniprot ID P35222)'; No tags are stated for the FP assay; also called bCat; B-Catenin
T6 sequence: T1 sequence (looked up)
Protocol: (§2) The plate was incubated protected from light for 60 minutes at 20° C. prior to read. Reads were performed on a CLARIOstar plate reader (BMG Labtech) in duplicate, and data were fitted to a 1:1 binding model with hill slope using an in-house script. All provided concentrations are final concentrations.

[6] = biological target: T7, full-length beta-Catenin (Uniprot ID P35222) (Homo sapiens (Human), UniProt P35222 2-781); assay: fluorescence polarization competition; 10 nM full-length beta-catenin, 10 nM 5FAM-TCF4(10-53) probe
T7 construct: The FP assay uses 10 nM 'full-length beta-Catenin (Uniprot ID P35222)'; also called bCat; B-Catenin
T7 sequence: T4 sequence
Protocol: as §2

[7] = biological target: B-cat-Halo (beta-catenin HaloTag fusion expressed in HEK293 cells) (UniProt P35222 1-781); assay: NanoBRET Abs IC50 in HEK293 cells; Bcat-Halo / TCF4-Luc engagement, competitor TCF4-Luc

Binder: Ac-[αAllylPro]D[tBuAla][B5(3)]D[Phe(3-COOH)]AAFL[PyrS2″][2F3MeF][Bta][MePpzAsn]-NH2 (staple 1-4, 4-11) [I-1612]
NanoBRET Abs IC50 (B-cat-Halo): 5.3 µM
DLD1 4% Abs IC50 [1]: 4 µM

Binder: Ac-[αAllylPro]DF[B5(4)]DDLLFT[PyrS2″][Phe(2-Cl)][Bta]S-NH2 (staple 1-4, 4-11, '2C1F' is printed for 2ClF) [I-1158]
IC50 [4]: 0.168 µM

B2: I-217 (peptide)
peptide: Ac-[αAllylPro]DA[B5(4)]DEAAXV[S8]FWQ-NH2
modifications: staple 1-4, 4-11; not fully specified (residue 9); printed as Ac-PL3-Asp-Ala-B5-Asp-Glu-Ala-Ala-MeTyr-Val-S8-Phe-Trp-Gln-NH2
notes: Stapled (stitched) peptide; also called Ac-PL3-Asp-Ala-B5-Asp-Glu-Ala-Ala-MeTyr-Val-S8-Phe-Trp-Gln-NH2
IC50 [5]: 1.96 µM

Binder: Ac-[αAllylPro]D[tBuAla][B5(5)]DTAA[Phe(3-CF3)]T[PyrS2″]F[Bta]S-NH2 (staple 1-4, 4-11) [I-1268: Ac-PL3-Asp-Npg-B5-Asp-Thr-Ala-Ala-3F3MeF-Thr-PyrS2-Phe-BztA-Ser-NH2]
IC50 [7]: 28.4 µM

Second part, the binder after the results:

NanoBRET Abs IC50 [2]: 32.3 µM
IC50 [3]: 0.156 µM
B1: I-1811 (peptide)
peptide: Ac-[αAllylPro]DL[B5(19)]DDAAFL[PyrS2]FWQ-NH2
modifications: staple 1-4, 4-11
notes: Stapled peptide; also called Ac-PL3-Asp-Leu-B5-Asp-Asp-Ala-Ala-Phe-Leu-PyrS2-Phe-Trp-Gln-NH2

IC50 [6]: 2.35 µM
B3: I-1647 (peptide)
peptide: Ac-[αAllylPro]NY[B5(16)]DQK(iPr)AFL[PyrS2]F[Bta]Q-NH2
modifications: staple 1-4, 4-11
notes: Stapled peptide; also called Ac-PL3-Asn-Tyr-B5-Asp-Gln-iPrLys-Ala-Phe-Leu-PyrS2-Phe-BztA-Gln-NH2

— patent US20240116985A1 (published 2024)
